The record followed here is the nanobody polyreactivity screen of Harvey et al. (2022).

A short description of this data set: yeast display, Sf9 membrane polyspecificity reagent, FACS + sequencing; frameworks hold sequencing errors. In outline:
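Nanobodies came from a synthetic yeast display library in Saccharomyces cerevisiae BJ5465, induced with galactose for 36–48 hours and stained for 1 hour at 4 °C with 10% biotinylated, detergent-solubilized Sf9 membrane reagent. Cells were enriched on streptavidin microbeads and then FACS-sorted, with low and high (top ~1%) gates set on anti-HA fluorescence for expression and streptavidin fluorescence for reagent binding. Each polyreactivity label reflects the gate a clone came from. Genes were amplified by colony PCR, sequenced by MiSeq 2 × 250 and filtered by CDR length.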
“QVQLQESGGGLVQAGGSLRLSCAASGSISRYYDMGWYRQAPGKEREFVAGISGGAITYYADSVKGRFTISRDNAKNTVDLQMNSLKPQDTAVYYCAADTGVYQYHSYWGQGTQVTVSS”: the “polyreactivity (PSR sort gate)” value is listed as “low polyreactivity”.
Take “QVQLQESGGGLVQAGGSLRLSCAASGSISRYYDMGWYRQAPGKEREFVAGISGGAITYYADSVKGRFTISRDNAKNTVYLQMNSLKPEDTAVYYCAADPGVYQYHSYWGQGTQVTVSS”: the “polyreactivity (PSR sort gate)” value is on record as “low polyreactivity”.
On to “QVQLQESGGGLVQAGGSLRLSCAASGSISRYYDMGWYRQAPGTEREFVAGISGGAITYYADRVKGRFTISRDNAKNTVYLQMNSLKPEDTAVDYCAADTGVYLYHSYWGQGTQVTVSS”, for which the “polyreactivity (PSR sort gate)” value is “low polyreactivity”.
Then “QVQLQESGGGLVQAGGSLRLSCAASGSISYPRTMGWYRQAPGKEREFVAGIGVGGTTYYADSVKGRFTISRDNAKNTVYLQMHSLKPEDAAVFYFAVAAFYDKYYVYWGQGTQVTVSC”, with “low polyreactivity”.
Then “QVQLQESGGGLVQAGGSLRLSCAASGSIYDDTYMGWYRQAPGKERELVATIDSGSTTNYADSVKGRITISRDNAKNTVYLQMNSLKPEDTGVYYCAAADSHIDYFDYWGQGTQVTVSS”, with “low polyreactivity”; and “QVQLQESGGGLVQAGGSLRLSCAASGSIYDDTYMGWYRQAPGKERELVATIDSGSTTNYADSVKGRITISRDNAKYTVYLQMNSLKPEDTAVYYCAAADSHIDYFDYWGQGTQVTVSS”, with “low polyreactivity”; and “QVQLQESGGGLVQAGGSLRLSCAASGSSSILHSMGWYRQAPRKERELVAGINWGATTYYADSVKGRLTTSRDYAKNTVYLQMNSLKPEDTAVYYCAVPTYYPYPLLYWGQGTQVTVSS”, with “low polyreactivity”.
In the case of “QVQLQESGGGLVQAGGSLRLSCAASGTIFRFRYMGWHRQAPGKERELVAGINGGTTTYYADSVIGRFTISRDNAINTVYLQMNSLKPDDTAVYNCAAGASRLTYYDYWGQGTQVTVSS”, the “polyreactivity (PSR sort gate)” value is recorded as “low polyreactivity”.
The result for “QVQLQESGGGLVQAGGSLRLSCAASGTIFTARFMGWSRQAPGKERDLVATITDGGNTNHADSVKGRFTISRDNAKNTVYLQMNSLKPEDAAVNYSAAGEVDNDTLLYWGQGSQVTVSS” reads “low polyreactivity”.
The result for “QVQLQESGGGLVQAGGSLRLSCAASGTIFTARIMGWYRQAPGKERELVATITDGGNTNHADSVKCRFTISRDNAKITVYLQMNSLKPEDAAVYYCAAGEVDNDTLLYWGQGSQVTVSS” reads “low polyreactivity”; that for “QVQLQESGGGLVQAGGSLRLSCAASGTIFWLWAMGWYCQAPGKERELVASISSGGTTYHADSVKGRFTISRDNAKNTVYLQMNSLKPEDTAVYYSAAFYVATSKLGFWGQGSQVTVSS”, “low polyreactivity”; that for “QVQLQESGGGLVQAGGSLRLSCAASGTISDSGLMGWYRQAPGKERELVAGISSGGITNYADSVKGRFTISRDNAKNKVYLQMNSLKPEDTAVYWGQGTQVTVSS”, “low polyreactivity”.
In the case of “QVQLQESGGGLVQAGGSLRLSCAASGTISEDDWSGWYRQAPGKERELVAAIGLGSNTNYADSLKGRFPISRDNAKNTVYLQMNSLKPEDTAVYYSAVSVWQYSDNVYRGQGTQVTVSS”, the “polyreactivity (PSR sort gate)” value was “low polyreactivity”.
With “QVQLQESGGGLVQAGGSLRLSCAASGTITFAAYMGWYRQAPGKEREYVASIGYGATTYYADSEKGRFTISRDNANNTVYLPMNSLKPGDTAVYYCAVDRSPQYRYLYYWGQGTQVTVCS”, the “polyreactivity (PSR sort gate)” value is recorded as “high polyreactivity”.
Then “QVQLQESGGGLVQAGGSLRLSCAASGTITQEDWMGWYRQAPGKEREFVAAIGLGSNTNYADSLKGRFTISRDNAKNTVYLQMNSLKPEDTGVYYCAVSVWQYSDHVYRGQGTQVTVSS”, with “low polyreactivity”; and “QVQLQESGGGLVQAGGSLRLSCAASGTITVLYKMGWFRQAPGKEREFVASINYGTSTYYADSVKGRFTVSRDSAKNTVYLQMNSRKPEDTAVYYCAAAYRWQDVYRYWGQGTQVTVSS”, with “low polyreactivity”; and “QVQLQESGGGLVQAGGSLRLSCAASGYISFSGYMGRYRQAPGKEREFVDSITPGRSTYYADSVKGRFTISRDNAENTVYLQMNSLKPEDTAVYYCAADDSRTEQHAYWGQGTQVTVSS”, with “high polyreactivity”.
As for “QVQLQESGGGLVQAGGSLRLSCAASGYISSWYPMGWYRQAPGKEREFVATIAPGATTYYADSVKGRFTISRDYAKNTVYLQMNSLKPEDTAVYFCAAGPENNDFYSYWGQGTQVTVSS”, the “polyreactivity (PSR sort gate)” value was “low polyreactivity”.
Regarding “QVQLQESGGGLVQAGGSLRLSCAASGYISTFSSEMGWYRQAPGKERELVASIAPGCTTSYADSVKGRFTISRDNAKNTVYLQMHRLKPEDTAVYYCAVDYTVPASFGYWGQGTQVTVSS”, the “polyreactivity (PSR sort gate)” value is reported as “high polyreactivity”.
In the case of “QVQLQESGGGLVQAGGSLRLSCAASGYISYWIYMGCYRQAPGKERELLPVLITVLVPIMRIACKAGFTISRDNAKNSVYLQMNSQKPEDTALYYCAVSWYNGDYFSYWGQGTQVTVSS”, the “polyreactivity (PSR sort gate)” value is “low polyreactivity”.
The result for “QVQLQESGGGLVQAGGSLRLSCAASGYITYFVGMGWYRQPPGKEREFVASIADGSNTYYADSVKGRFTISRDNAKNTVYLQRNSLKPEDTAVYYCAVVDSWTYRFDYWGQGTQVTVSS” reads “high polyreactivity”.
The result for “QVQLQESGGGLVQAGGSLRLSCAASVTISDSGLMGWYRQAPGKERELVAGISSGGITNYADSVKGRFTISRDNAKNTVYLQMNSLKPEVTAVYWGQGTKVTVSS” reads “low polyreactivity”; that for “QVQLQESGGGLVQAGGSLRLSCAATGSIFYRLKMGWHRQAPGKERELVATIDPGSNTYYADSVKGSFTISRDNAKNTVYPQMYSLKPEDTAVYYCAVSAHWTIHYYYWGQGTQVTVSS”, “high polyreactivity”.
For the sequence “QVQLQESGGGLVQAGGSLRLSCASSGTISQEDWKGWYRQAPGKEREFVAAIGLGSNTNYADSLKGRFTISRDNAKNTVYLQMNSLKPEDTAVYYCAVSVWQYSDHVYRGQGTQVTVSS”, the “polyreactivity (PSR sort gate)” value is given as “low polyreactivity”.
Then “QVQLQESGGGLVQAGGSLRLTCAASGTISQEDWLGWYLQAPGKEREFVAAIGLGSNTNYADSLKGRFTISRDNAQNTVYLQMNSLKAEYTAVYYCAVSVWQYSDHVYRGQGTQVTVSS”, with “low polyreactivity”; and “QVQLQESGGGLVQAGGSLRLTCAASRNISGSADLGWYHPAPGKEREFVASITSGGTTYYADSVKGRVTISRDNAKNTVYLQMNSLKPEDTAVYYCAVGDPADAEFGYWGQGSQVTVSS”, with “low polyreactivity”; and “QVQLQESGGGLVQAGGSLRMRCAASRNISGSSDLGWYHQAPGKEREFVASITSGGTTYYADSVKGRFTISRDNAKNTVYLQMNSLKPEDTAVYYCAVGDPADAEFGYWGQGTQVTVSS”, with “low polyreactivity”.
Consider “QVQLQESGGGLVQAGGSLRMSCAASGNIFDADIMGWYRQAPGKERELVASITDGRRTNYADSVKGRYTISRDSEKNTVYMQMNSLIPVDTAVYYCADIAYPVVPTYFDYDSDYFHWGQGTQVTVSS”, for which the “polyreactivity (PSR sort gate)” value is given as “high polyreactivity”.
Then “QVQLQESGGGLVQAGGSLRPSCAASGNIFVPFKMGWYRLAPGKEREHVASINRGSTTNYADSVKGRFTISRDNAKNTVYLQMISLKPEDTAVYYCAAIAYPDIPTYLDYDSDYFYWDQGTQVTVSS”, with “high polyreactivity”; and “QVQLQESGGGLVQAGGSLRPSCAASGSISDGVPKGWYRQAPGEERELVATTVLGATTNYADSVKGRFTISRGNAKNTVYLQMNSLKPEETAVYYCAAPLRYDKGFSYWGQGTQVTVSS”, with “low polyreactivity”.
The result for “QVQLQESGGGLVQAGGSLRQSCAASGSNSPWSYMGRSRQAPGKEREFVASINAGTNTYYADSAKGRITISRDNATNTVYLQMNSLKPEDTAAYYCAARYWNDYYFPYWGQGTQVTVSS” reads “low polyreactivity”; that for “QVQLQESGGGLVQAGGSLRQSYAASGYIFPSLAMGWYRQAPGKEREFVAAIGRGSTNNYADSVKGRFTISRDNAKNTAYQQMNSLNPEDTAVYYCAAAASPLTRHLYWGQGTQVTVSS”, “low polyreactivity”; that for “QVQLQESGGGLVQAGGSQRLSCAASGYIFYFQYMGWYRQAPGKEREFVAAISDGANTNYADSVKGRFTISRDNAKNTEYLQMNSLKPEDTAVYFCAVYADENYYFIYWGQGTQVTVSS”, “low polyreactivity”.
The result for “QVQLQESGGGLVQAGGSQRLSCASSGYIFYFQYMGWYRQAPGKEREFVAAISDGANTNYADSVKGRFTISRDNAKNTEYLQMNSLKPEDTAVYYCNADQYYWYEYDYWGQGTQVTVSS” reads “low polyreactivity”.
Take “QVQLQESGGGLVQAGGSRRLSCAASGSISNLIAKCWYRQAQGKEREFVAAIGPGANTNYADSVKGRFTISRDNAKNPVYLQMNSRTPEDTAVYYCAVDYYGEAVYHYWGQGTQVTVSS”: the “polyreactivity (PSR sort gate)” value is “high polyreactivity”.
For “QVQLQESGGGLVQAGGTLRLSCAASGSFSADEDMGWYRQAQGKEREFVAGISVGGNTNYADSVKGRFTISRENAKNTVYLQMNILKPEDTAVYYCNARLLYLGSGFYYWGQGTQVTVSS”, the “polyreactivity (PSR sort gate)” value is recorded as “high polyreactivity”.
On to “QVQLQESGGGLVQARGSLRLSCAASGTILYSLGMGWYRQAPGKRREFVASITWGTTTNYAESVKGRFTISRDNAKNTVYPQMNSLKPEDTAVYYCAAPPFGDSSYHYWRQGTQVTVSS”, for which the “polyreactivity (PSR sort gate)” value was “low polyreactivity”.
The result for “QVQLQESGGGLVQARGSLRLSCAASGTISQEDCMGWYRQAPGKVREFVAAIGLGSNTNYADRLKGRFTISRDNAKNTVYLQMNSLKTEDTAVYYCAVSVWQYSDHVYRGQGTQVTVSS” reads “low polyreactivity”.
“QVQLQESGGGLVQASGSLRLSCAASGNIFPDYFMGWYRLAPGKEREFVANITGGSTTNYADSVKGRFTISRDNAKNTLYLQMNSLKPEDTAVYYCAVNFGTVVLYLYWGQGTQVTVSI”: the “polyreactivity (PSR sort gate)” value is “high polyreactivity”.
As to “QVQLQESGGGLVQEGGSLRLSCAASGNISPPADMGWYRPAPGKERELVASIGTGGTTNYADSVKGRFTISRDNAKNTVYLQMNSLKPEDTAVYYCNVRYRSAGSRYGYWGQGTQVTVSS”, the “polyreactivity (PSR sort gate)” value is “low polyreactivity”.
The result for “QVQLQESGGGLVQEGGSLRLSCAASGNISPPADMGWYRQAPGKERELVASIGTGGTTNYADSVKGRFTISRDNAKNTVYLQMNSLKPDDTAVYYCAAVRYEYNPYDYWGQGTQVTVRS” reads “low polyreactivity”.
